Data from patent publication US20170067045A1 (Bicycle, published 2017).
*1 amine or outer side, *2 acyl side, *3 side chain or, on linkers, in order; H or OH if unused. Bridges are numbered along the chain shown (N, C = ends). Where no end group is shown, it is not given here. tris(bromomethyl)mesitylene = scaffold as named in the source, Cc1c(C[*:1])c(C)c(C[*:3])c(C)c1C[*:2]; THME(IAc3) = trishydroxymethylethane trisiodoacetate, CC(COC(=O)C[*:1])(COC(=O)C[*:2])COC(=O)C[*:3]; TBMB = c1c(C[*:1])cc(C[*:3])cc1C[*:2]

Key:
[1] = molecular target: T1, MDM2 (res 2-125) (UniProt Q00987 2-125); assay: fluorescence anisotropy titration, excitation 295 nm, 23 C, PBS, 5 mM DTT
T1 construct: range 2-125; Titrant in the fluorescence anisotropy experiments
T1 sequence (Q00987 2-125 limits assumed): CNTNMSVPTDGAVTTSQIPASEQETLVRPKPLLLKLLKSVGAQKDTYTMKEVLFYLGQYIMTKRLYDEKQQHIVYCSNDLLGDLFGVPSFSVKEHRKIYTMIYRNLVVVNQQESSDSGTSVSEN
Description: (§1) Titration experiments were run on a Horiba Jobin Yvon fluorimeter equipped with the Hamilton Microlab titrator controlled by laboratory software. The λₑₓ and λₑₘ used were 295 nm and 350 nm, respectively. The slit widths for excitation and emission were 5 nm and 15 nm and the integration time 1 Os was used for each measurement. […] The experiments were performed at 23° C. in PBS, 5 mM DTT. […] Titration data were analyzed with a standard 1:1 binding model by using the quadratic solution to the equilibrium Kd=[A][B]/[AB]. […] The fitting equation contained an extra term to account for linear drift.

[2] = molecular target: T1, MDM2 (res 2-125); assay: fluorescence anisotropy titration (intrinsic Trp fluorescence), 23 C, PBS, 5 mM DTT
Description: as §1

[3] = molecular target: T1, MDM2 (res 2-125); assay: fluorescence anisotropy titration, excitation 280 nm, 23 C, PBS, 5 mM DTT
[4] = molecular target: T1, MDM2 (res 2-125); assay: fluorescence anisotropy
[5] = molecular target: kallikrein (UniProt P03952 20-638, limits assumed); assay: cell-based or functional assay
Sequence of kallikrein (P03952 20-638 limits assumed): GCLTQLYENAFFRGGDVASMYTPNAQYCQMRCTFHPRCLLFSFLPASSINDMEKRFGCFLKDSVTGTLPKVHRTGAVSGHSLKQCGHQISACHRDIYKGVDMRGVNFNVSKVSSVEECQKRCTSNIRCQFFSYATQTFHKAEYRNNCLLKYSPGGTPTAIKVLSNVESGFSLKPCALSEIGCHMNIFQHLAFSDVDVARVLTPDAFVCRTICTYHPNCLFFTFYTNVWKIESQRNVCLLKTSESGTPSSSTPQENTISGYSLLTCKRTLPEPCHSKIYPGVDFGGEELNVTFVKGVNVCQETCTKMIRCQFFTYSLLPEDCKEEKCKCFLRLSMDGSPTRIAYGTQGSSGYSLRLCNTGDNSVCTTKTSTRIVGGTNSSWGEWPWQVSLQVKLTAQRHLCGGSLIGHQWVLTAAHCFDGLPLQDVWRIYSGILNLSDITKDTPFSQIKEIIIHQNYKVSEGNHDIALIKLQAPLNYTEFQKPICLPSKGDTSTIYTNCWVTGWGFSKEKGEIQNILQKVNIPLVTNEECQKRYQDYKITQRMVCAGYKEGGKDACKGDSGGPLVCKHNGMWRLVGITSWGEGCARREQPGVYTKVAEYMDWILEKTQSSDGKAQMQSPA

B1: PEP48 synthetic peptide conjugated with TBMB (peptide)
peptide: H-SCVRFGWTCDNSWHGCKG-OH
modifications: linker 2-9-16 via TBMB
notes: The anisotropy paragraph says only 'peptides 10, 48'; also called peptide 48
Kd [1]: 567 nM
Kd [2]: 250 to 750 nM
Kd [3]: 760 nM

B2: PEP48-3s1 conjugate (TBMB) (peptide)
peptide: SDDCVRFGWTCPTVMCG
modifications: linker 4-11-16 via TBMB
notes: PEP48 derivative with the second loop re-selected
Kd [4]: 27 to 100 nM

B3: PEP48-3s1 conjugated with THME(IAc3), HPLC peak / stereoisomer with affinity 1600 nM (peptide)
peptide: SDDCVRFGWTCPTVMCG
modifications: linker 4-11-16 via THME(IAc3); also: one of two stereoisomers (HPLC peaks), not assigned
notes: The other of two HPLC peaks of identical mass (expected stereoisomers); also called PEP48-3s1-THME(IAc3)
Kd [4]: 1600 nM

ACSDRFRNMPADEALCG (both cysteines and the single methionine conjugated to TBMB) [PK15 with central cysteine altered to methionine, TBMB conjugate, first of two HPLC products]
IC50 of inhibition of kallikrein activity [5]: > 10000 nM

ACSDRFRNCPADEALCG (linker 2-9-16 via tris(bromoethyl)mesitylene) [PK15 conjugated with tris(bromoethyl)mesitylene]
IC50 of inhibition of kallikrein (Z-Phe-Arg-AMC substrate, fluorescence) [5]: ~400 nM

B4: PEP48-3s1 conjugated with THME(IAc3), HPLC peak / stereoisomer with affinity 640 nM (peptide)
peptide: SDDCVRFGWTCPTVMCG
modifications: linker 4-11-16 via THME(IAc3); also: one of two stereoisomers (HPLC peaks), not assigned
notes: One of two HPLC peaks of identical mass (expected stereoisomers); also called PEP48-3s1-THME(IAc3)
Kd [4]: 640 nM

ACSDRFRNCPADEALCG (linker 2-9-16 via tris(bromomethyl)mesitylene) [PK15 conjugated with tris(bromomethyl)mesitylene]
IC50 of inhibition of kallikrein (Z-Phe-Arg-AMC substrate, fluorescence) [5]: 150 nM

ACSDRFRNCPADEALCG (linker 2-9-16 via TBMB) [PK15-TBMB]
IC50 of inhibition of kallikrein (Z-Phe-Arg-AMC substrate, fluorescence) [5]: 13 nM

ACSDRFRNMPADEALCG (both cysteines and the single methionine conjugated to TBMB) [PK15 with central cysteine altered to methionine, TBMB conjugate, second of two HPLC products]
IC50 of inhibition of kallikrein activity [5]: > 10000 nM

ACSDRFRNCPADEALCG (linker 2-9-16 via TBMB; also: thioether links to TBMB oxidised to sulphones) [oxidized PK15-TBMB (sulphone)]
IC50 of inhibition of kallikrein (Z-Phe-Arg-AMC substrate, fluorescence) [5]: 1300 nM

B5: oxidized PK15-TBMB (sulphoxides, +3 oxygen atoms) (peptide)
peptide: ACSDRFRNCPADEALCG
modifications: linker 2-9-16 via TBMB; also: thioether links to TBMB oxidised to sulphoxides (stereoisomer mixture)
IC50 of inhibition of kallikrein (Z-Phe-Arg-AMC substrate, fluorescence) [5]: ~2400 nM

B6: PEP10 synthetic peptide conjugated with TBMB (peptide)
peptide: H-SCELWNPKCRLSPFECKG-OH
modifications: linker 2-9-16 via TBMB
notes: The anisotropy paragraph says only 'peptides 10, 48'; also called peptide 10
Kd [1]: 267 nM
Kd [2]: 250 to 750 nM
